Literature values as cited in paper PMC3166722.
Read-outs that look alike come from different tables or passages of the source.

Tests used:
[1] = biological target: CaM (Homo sapiens) (UniProt P0DP23)
[2] = biological target: GPC (trypsinized IOVs) (Homo sapiens) (UniProt P04921); experiment: IOV binding, Scatchard analysis
[3] = biological target: CaM (Homo sapiens) (UniProt P0DP23); experiment: resonant mirror detection (IAsys)

Sequence of GPC (trypsinized IOVs) (Homo sapiens) (P04921 whole entry): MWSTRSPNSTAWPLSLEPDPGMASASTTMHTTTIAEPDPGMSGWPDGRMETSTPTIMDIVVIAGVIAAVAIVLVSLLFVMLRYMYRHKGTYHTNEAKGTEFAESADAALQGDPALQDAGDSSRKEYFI
Sequence of 4.1R80 (P11171 whole entry): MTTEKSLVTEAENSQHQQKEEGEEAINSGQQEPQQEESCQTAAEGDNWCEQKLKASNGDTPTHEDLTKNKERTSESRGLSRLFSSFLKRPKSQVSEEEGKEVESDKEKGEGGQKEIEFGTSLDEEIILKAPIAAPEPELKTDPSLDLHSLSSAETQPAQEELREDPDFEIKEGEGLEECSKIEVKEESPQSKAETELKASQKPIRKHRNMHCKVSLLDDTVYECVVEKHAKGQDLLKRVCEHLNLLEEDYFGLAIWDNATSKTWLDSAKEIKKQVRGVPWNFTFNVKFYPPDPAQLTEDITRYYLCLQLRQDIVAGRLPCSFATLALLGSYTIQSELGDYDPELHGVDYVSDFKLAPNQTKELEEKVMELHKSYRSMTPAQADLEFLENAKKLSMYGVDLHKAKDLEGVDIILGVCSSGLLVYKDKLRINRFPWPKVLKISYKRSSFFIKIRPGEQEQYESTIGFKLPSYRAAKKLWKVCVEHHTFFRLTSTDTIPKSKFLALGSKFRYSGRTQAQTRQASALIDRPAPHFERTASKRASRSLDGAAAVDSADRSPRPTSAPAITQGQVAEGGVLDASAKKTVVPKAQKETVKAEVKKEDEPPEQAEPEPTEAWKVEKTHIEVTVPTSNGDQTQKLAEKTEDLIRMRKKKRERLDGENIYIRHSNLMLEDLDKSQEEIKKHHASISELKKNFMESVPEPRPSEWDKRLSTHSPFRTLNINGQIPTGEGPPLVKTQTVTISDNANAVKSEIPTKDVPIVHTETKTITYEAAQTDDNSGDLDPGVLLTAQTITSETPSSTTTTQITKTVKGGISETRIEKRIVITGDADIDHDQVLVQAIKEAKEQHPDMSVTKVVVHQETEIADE
Sequence of 4.1R135 (P11171 whole entry): as above

4.1G (from UniProt O43491)
Kd [1]: 10 nM

4.1R80 (from UniProt P11171)
Kd [2]: 76 nM

4.1R135 (from UniProt P11171)
Kd [2]: 2000 nM
Kd [3]: 51 nM
